Experimental data as given in patent US20230212549A1 (3B PHARMACEUTICALS, published 2023).
Numbered stars: 1 amine (or outer) side, 2 acyl side, 3 side chain; on linkers, the order of the positions; unused ones are H or OH. Bridge positions count the residues as written; N and C are the ends. Square brackets hold non-standard residues; d marks the D form. Primed or numbered codes have the meaning given here. * marks the point of attachment. Ttds″ = 1,13-diamino-4,7,10-trioxatridecan-succinamic acid spacer, O=C(CCC(=O)[*:2])NCCCOCCOCCOCCCN[*:1]; Ttds(4) = spacer between chelator and peptide, O=C(CCC(=O)[*:2])NCCCOCCOCCOCCCN[*:1]; DOTA = O=C(O)CN1CCN(CC(=O)O)CCN(CC(=O)*)CCN(CC(=O)O)CC1; mXylylene = c1cc(C[*:1])cc(C[*:2])c1; 4Pal = N[C@@H](Cc1ccncc1)C(=O)O; 4Amb = NCc1ccc(C(=O)O)cc1; Nle = CCCC[C@H](N)C(=O)O; Hexanoyl = CCCCCC(=O)*; Omp = not defined here

B1: Hex-[Cys(3MeBn)-Pro-Pro-Thr-Glu-Phe-Cys]-Asp-Arg-NH2 (peptide)
peptide: Hexanoyl-CPPTEFCDR-NH2
modifications: linker 1-7 via mXylylene
SMILES: CCCCCC(=O)N[C@H]1CSCc2cccc(c2)CSC[C@@H](C(=O)N[C@@H](CC(=O)O)C(=O)N[C@@H](CCCNC(=N)N)C(N)=O)NC(=O)[C@H](Cc2ccccc2)NC(=O)[C@H](CCC(=O)O)NC(=O)[C@H]([C@@H](C)O)NC(=O)[C@@H]2CCCN2C(=O)[C@@H]2CCCN2C1=O
notes: also called 3BP-3299
B2: Hex-[Cys(3MeBn)-Pro-Pro-Thr-Glu-Phe-Cys]-Asp-Omp-Arg-NH2 (peptide)
peptide: Hexanoyl-CPPTEFCD[Omp]R-NH2
modifications: linker 1-7 via mXylylene; reading uncertain; also: printed as Hex-[Cys(3MeBn)-Pro-Pro-Thr-Glu-Phe-Cys]-Asp-Omp-Arg-NH2
notes: also called 3BP-3302
B3: Hex-[Cys(3MeBn)-Pro-Pro-Thr-Glu-Phe-Cys]-Asp-Pamb-Arg-NH2 (peptide)
peptide: Hexanoyl-CPPTEFCD[4Amb]R-NH2
modifications: linker 1-7 via mXylylene
SMILES: CCCCCC(=O)N[C@H]1CSCc2cccc(c2)CSC[C@@H](C(=O)N[C@@H](CC(=O)O)C(=O)NCc2ccc(C(=O)N[C@@H](CCCNC(=N)N)C(N)=O)cc2)NC(=O)[C@H](Cc2ccccc2)NC(=O)[C@H](CCC(=O)O)NC(=O)[C@H]([C@@H](C)O)NC(=O)[C@@H]2CCCN2C(=O)[C@@H]2CCCN2C1=O
notes: also called 3BP-3301
B4: Hex-[Cys(3MeBn)-Pro-Pro-Thr-Glu-Phe-Cys]-Asp-His-Ppa-arg-Ttds-Lys(DOTA)-NH2 (peptide)
peptide: Hexanoyl-CPPTEFCDH[4Pal][dR][Ttds″]K(DOTA)-NH2
modifications: linker 1-7 via mXylylene
SMILES: CCCCCC(=O)N[C@H]1CSCc2cccc(c2)CSC[C@@H](C(=O)N[C@@H](CC(=O)O)C(=O)N[C@@H](Cc2c[nH]cn2)C(=O)N[C@@H](Cc2ccncc2)C(=O)N[C@H](CCCNC(=N)N)C(=O)NCCCOCCOCCOCCCNC(=O)CCC(=O)N[C@@H](CCCCNC(=O)CN2CCN(CC(=O)O)CCN(CC(=O)O)CCN(CC(=O)O)CC2)C(N)=O)NC(=O)[C@H](Cc2ccccc2)NC(=O)[C@H](CCC(=O)O)NC(=O)[C@H]([C@@H](C)O)NC(=O)[C@@H]2CCCN2C(=O)[C@@H]2CCCN2C1=O
notes: also called 3BP-3277
B5: Hex-[Cys(3MeBn)-Pro-Pro-Thr-Glu-Phe-Cys]-Asp-His-phe-Arg-Ttds-Lys(DOTA)-NH2 (peptide)
peptide: Hexanoyl-CPPTEFCDH[dF]R[Ttds″]K(DOTA)-NH2
modifications: linker 1-7 via mXylylene
SMILES: CCCCCC(=O)N[C@H]1CSCc2cccc(c2)CSC[C@@H](C(=O)N[C@@H](CC(=O)O)C(=O)N[C@@H](Cc2c[nH]cn2)C(=O)N[C@H](Cc2ccccc2)C(=O)N[C@@H](CCCNC(=N)N)C(=O)NCCCOCCOCCOCCCNC(=O)CCC(=O)N[C@@H](CCCCNC(=O)CN2CCN(CC(=O)O)CCN(CC(=O)O)CCN(CC(=O)O)CC2)C(N)=O)NC(=O)[C@H](Cc2ccccc2)NC(=O)[C@H](CCC(=O)O)NC(=O)[C@H]([C@@H](C)O)NC(=O)[C@@H]2CCCN2C(=O)[C@@H]2CCCN2C1=O
notes: also called 3BP-3276
B6: DOTA-Ttds-Nle-[Cys(3MeBn)-Pro-Pro-Thr-Gln-Phe-Cys]-Asp-NH2 (peptide)
peptide: {DOTA}-[Ttds(4)][Nle]CPPTQFCD-NH2
modifications: linker 3-9 via mXylylene
SMILES: CCCC[C@H](NC(=O)CCC(=O)NCCCOCCOCCOCCCNC(=O)CN1CCN(CC(=O)O)CCN(CC(=O)O)CCN(CC(=O)O)CC1)C(=O)N[C@H]1CSCc2cccc(c2)CSC[C@@H](C(=O)N[C@@H](CC(=O)O)C(N)=O)NC(=O)[C@H](Cc2ccccc2)NC(=O)[C@H](CCC(N)=O)NC(=O)[C@H]([C@@H](C)O)NC(=O)[C@@H]2CCCN2C(=O)[C@@H]2CCCN2C1=O
notes: also called 3BP-3401

Target: Recombinant human FAP (R&D systems, #3715-SE) (human, UniProt Q12884 26-760)
Test: cell-based or functional assay

pIC50 Category (Activity) [pIC50]	Binder
> 8	B1
> 8	B2
> 8	B3
> 8	B4
> 8	B5

Target: T1, fibroblast activation protein (FAP) on FAP-expressing human WI-38 fibroblasts (human, UniProt Q12884 1-760)
T1 construct: also called human FAP
Test: competitive FACS, WI-38 cells, vs Cy5 tracer m3; A = pIC50 >8.0

pIC50 Category (FACS) [pIC50]	Binder
> 8	B1
> 8	B2
> 8	B3
> 8	B4
> 8	B5

Target: T2, Recombinant human FAP (R&D systems, #3715-SE) (human, UniProt Q12884 26-760)
T2 construct: bought; in SPR captured on immobilized anti-FAP antibody MAB3715; also called rhFAP; human recombinant FAP
Test: SPR (Biacore T200), FAP captured on anti-FAP antibody, single cycle kinetics

pKD Category [pKD]	Binder
> 8	Hexanoyl-CPPTEFC-NH2 (linker 1-7 via tMeBn(DOTA-AET), also called 3BP-3653) [Hex-[Cys(tMeBn(DOTA-AET))-Pro-Pro-Thr-Glu-Phe-Cys]-NH2]
> 8	B6
